Measurements published in the DeepSol protein solubility set.

assay: soluble on expression in E. coli; label from the status in PepcDB or PDB records

Q: With “MKRYGNLYQEIINFENILIASRQAQKSKRFRDNVLDFNYHLETELIKLQKHLTDKTYQPGAYRTFRLTNPKSRLISAAPYRDRVVHHALCNIIVPIFERAFVADSYANRIGFGTHRALKKFTHSARNSPYVLQCDIRKYFPSIDHIILKELIRRKIKCPDTLWLIDTIIDNSNEQETVIDYFAGDDLLSPITRRKGLPIGNLTSQFFANIYLNGFDKIIKEELKISKYVRYVDDFALFSDDRELLADARLAIEAYLAELRLKIHPIKSQLFETKIGATFLGFRIFSHKIRVRNSNLHQARRRLKRLKTDYAQGKLELNQVTQSMRSWIAHLEHGDTWRLRKQIFTSLHFRRKLEHHHHHH” as the sequence, how does the “soluble on expression in E. coli” value read?
A: The value was “soluble”.

Q: With “MKSFILGPLGLLVAICCLYQPADAALAAMSIDLGSQFIKIGLVKPGVPMDIVLNKESRRKTPNVISFKNDERFFAEAAAAMSSSHPQSSYNFLLSMIARKEGDDAFVTFQKTFPFTAFEFDEVRKTVVFPYKEEKYNVETLLAMILWNAKKVTEAYADQTVKDVVITVPIFLNQAERRAIASAAEIAGLNLLQLLNDGSAAALNYGVFRRKEITEKPTHMLIYDMGAVKTTATIVQYVLESTRKDGKDKQPTLRTVGVGFDKTLGGLEITNRLRDHLEKVFRDTVKTSKDISTNARAIGKLHKEAERVKQVLSANKDTYAQVESLFEEQNFRAKVTREELEKMIEDLEPRIAAPILDAIGMAQISTNDIDLVVLMGAGTRVPKVKEILKTILKDKEISNFLNTDEAIAMGAVYQAAHLSKSFKVLPFNVHEKILYPVFVNFLTKTEEGTMKPIRKSLFGENYPVPNRVMHFSSYSDDFKIDIQDADKNPLSTVEISGVKDAIEKEVTDENSVLKGVKTTFSIDLSGIVSVEKASVVVEKVPTPEEKDKYEVDKKEFDEWEKEQEELKKKEKAEKKEKEEKKKTEGEEEKNEDAAGEEKTEEKTEEVEKPVVVKKTKPVEPKAKKINVALTIKETKTDNIDLNEEEVTAAKKVLGDFEQKEKEKHDREEAMNRLEGLLYDLAVRLEDGEEYAEYATEEEKKAILEEVAVLKLWFEDDVSLETKKEEFDEKRAKLEELTAKPNARKQERLDIPKVAEIIEDHFNRSMTFHAMALNLTQFEEGNKTFTDTELEVLTKLIESTTEWWNEKKDLFEKQAKNEDPVVKASEIAEKARDLEREVRYLVNKLKIASSKKSKESEKKKKTKKEKDTVKERKEEETTETTTEDQANEQQTPPPFENDNTKDDESASTEEPKKDTEHDASEL” as the sequence, how does the “soluble on expression in E. coli” value read?
A: Its value is “not soluble”.

Q: Which “soluble on expression in E. coli” value does the source give for “MKSLIDHFDIASAKVQSLVQETLHHADDGELYLEYTESETLLFDNRQLKNGSFHQDMGFGLRVVAGEATGYAHSSELSAAALKRASEAAKTVTYKNHAGPYSVAPQQTNKKLYQPHNPLNAPSFEEKSALLQKIDDYLRAKNDKLHQVTVSLSGSLQHVEILRADGNLVRDIRPLVRLSISVVAAEGNRRENGFYGCGGRQAFSQFISEENWKKAADEALRMALINLEAEAAPAGTFDVVLANGWPGVMLHEAVGHGLEGDFNRKKTSAFSGLLGQQVAAKGVTVVDDGTIPKCRGSLTIDDEGTPSGYNILIENGKLVGFMQDRLNARLMGVNPTGNGRRESYAYAPMPRMTNTIMLGGDKTPEEILSSLKSGIYAVSFGGGQVDITSGKFVFECTEAYRVENGKIVAPIKGATLIGNGPEAMKRITMIGNDSKLDNGIGTCGKAGQSVPVGVGQPHLRINNMTIGGTELT” here?
A: Its value is “not soluble”.

Q: For “MKSLPYTIALLFCGLIIVSMAAKGHSTDTDESVQKWEQLAWSKIQDEYKGASFSDYAYMGRTEVNDQQTKDVFRVTVRQKDDTFSVRAEVYFHPVTNHMISINVFRLMAGDPLEHHHHHH”, which “soluble on expression in E. coli” value is on record?
A: The value was “soluble”.

Q: For “MKSLVKVSLAALALAFAVSAYAAEKELIVATDTAFVPFEFKQGDKYVGFDIDLWDAIAKKLDLKYTLKPMDFSGIIPALQTKNVDLALAGITITDERKKAVDFSDGYYNSGLLVMVKADNNDIKSEADLQGKVLAVKSGTGSVDYAKANIKTKDLRQFPNIDNAYLELGTGRADAVLHDTPNILYFIKTAGNGQFKAVGESIKAQQYGVAFPQGSDLREKVNAALKSLKEDGTYAEIYKKWFGVEPK”, which “soluble on expression in E. coli” value is on record?
A: Its value is “not soluble”.

Q: With “MKSNKNEFLKLLTAYQGIIHKVNRIYFRSEADREDNFQETVYQLWRSFPALQNKEKPASWIYTVAINTSISKVRKDSRIEFRDSPPDGEPVDPWEQQEQDENWQRLVNALQKLNEIDKSIMLLYMEDYSYEEIAGIVGISSSAVGVKIHRLKGQLQKQFKK” as the sequence, how does the “soluble on expression in E. coli” value read?
A: The value was “not soluble”.

Q: With “MKSVQEKRNNTRAFKTVAKSWFATKTTWSEDYQRSVWTRLETYLFPDIGNKDIAELDTGDLLVPIKKIEKLGYLEIAMRVKQYATAIMRYAVQQKMIRFNPAYDLEGAVQKLEHHHHHH” as the sequence, how does the “soluble on expression in E. coli” value read?
A: The value was “soluble”.

Q: For “MKTHQYELIDEKVFEHEFDNGLKLFIIPKPGFQKTYVTYTTQFGSLDNHFKPIGSQQFVKVPDGVAHFLEHKLFEKEDEDLFTAFAEENAQANAFTSFDRTSYLFSATSNIESNIKRLLNMVETPYFTEETVNKEKGIIAEEIKMYQEQPGYKLMFNTLRAMYSKHPIRVDIAGSVESIYEITKDDLYLCYETFYHPSNMVLFVVGDVSPQSIIKLVEKHENQRNKTYQPRIERAQIDEPREINQRFVSEKMKLQSPRLMLGFKNEPLDESATKFVQRDLEMTFFYELVFGEETEFYQQLLNKDLIDETFGYQFVLEPSYSFSIITSATQQPDLFKQLIMDELRKYKGNLKDQEAFDLLKKQFIGEFISSLNSPEYIANQYAKLYFEGVSVFDMLDIVENITLESVNETSELFLNFDQLVDSRLEMENR”, which “soluble on expression in E. coli” value is on record?
A: Its value is “soluble”.

Q: For “MKTIIRYFSFVMGLMLTLPSFAKEKISIMLDWYVNPDHAAIIVAQQKGFFEKNNLEVEIIEPADPALPPKLAAAEKVDLAVSYQPQLYQQVAEGLPLVRVGSLISNPLNSVVVLKKSNLKSLADLKGKKVGYSVSGFEDGLLDTMLHSIGLSNKDVELVNVNWSLSPSLLTGQVDAVIGAFRNFELNQLALEKQEGIAFFPEQYGVPAYDELILVANKNSVTDKKTSAFLTALEQATSYLQAHPNEAWQAFVSYKPNELNTPLNQLAWKDTLPFLANKPRQLDAKRYQQMAEFMQQKGLIPKALALKEYAVEIELEHHHHHH”, which “soluble on expression in E. coli” value is on record?
A: Its value is “soluble”.

Q: For “MKTLLEVKDLQVSFDTHAGEVQAVRGVTFDLKKGETLAIVGESGSGKSVTSKALMGLIPNPPGRIKNGEIVFEGRDLTKLTEKEMQQVRGKDIAMIFQDPMTSLNPTMTIGNQIMEGLIKHQGMSKADARKVALELIDLVGIPNPEARLKQYPHQFSGGMRQRVVIAMALACNPKLLIADEPTTALDVTIQAQILELMKDIQQKTEAAIIFITHDLGVVANVADRVAVMYAGKVVEIGTVDEIFYNPKHPYTWGLIASMPSLDGSEEELYAIPGTPPDLLKPPKGDAFAPRNPQALKIDFEMDPPLFKVSDTHYAATWLLHEQAPEVRPPAVVEKRILQMKAGEQHD”, which “soluble on expression in E. coli” value is on record?
A: Its value is “not soluble”.

Q: For “MKTLMVFDPAMCCSTGVCGTDVDQALVDFSTDVQWLKQCGVQIERFNLAQQPMSFVQNEKVKAFIEASGAEGLPLLLLDGETVMAGRYPKRAELARWFGIPLDKVGLAPG”, which “soluble on expression in E. coli” value is on record?
A: The value was “soluble”.

Q: Which “soluble on expression in E. coli” value does the source give for “MKTLVELPLLPLRDVVVYPHMVIPLFVGREKSIEALEAAMTGDKQILLLAQKNPADDDPGEDGLYRMGTVATVLQLLKLPDGTVKVLVEGEQRGQVERFIEEEGHIRAAVQAIDDANVGEREAEVFTRSLLSQFEQYVQLGKKVPAEVLSSLNSIDEPSRLVDTMAAHMALKIEQKQDILEITDLSSRVEHVLALLDAEIDLLQVEKRIRGRVKKQMERSQREYYLNEQMKAIQKELGDIDEGHNEVEELKKRIDAAGLTKEAHTKATAELNKLKQMSPMSAEATVVRSYIDWLLNVPWKAESKVRHDLAKAEDILDADHYGLEEVKERILEYLAVQKRVKKLKGPVLCLVGPPGVGKTSLAESIARATNRKFVRMALGGVRDEAEIRGHRRTYIGSMPGRLIQKMTKVGVRNPLFLLDEIDKMGSDMRGDPASALLEVLDPEQNHNFNDHYLEVDYDLSDVMFLCTANSMNIPAPLLDRMEVIRLPGYTEDEKVNIAAKYLIPKQVQANGLKKGELTFEEGALRDIIRYYTREAGVRSLERQIAKVCRKAVKEHAKLKRIQAVVSSETLENYLGVRKFRYGLAEQQDQIGQVTGLAWTQVGGELLTIEAAVVPGKGQLTKTGSLGDVMAESITAALTVVRSRAQSLGIAADFHEKRDIHIHVPEGATPKDGPSAGIGMCTALVSAITQIPVRADVAMTGEITLRGQVLAIGGLKEKLLAAHRGGIKTVIIPEENVRDLKEIPDNIKSDLVIKPVKWIDEVLQIALQYAPEPLPDAAPEMVAKDEKREPDSKERIST” here?
A: The value was “not soluble”.

Q: Which “soluble on expression in E. coli” value does the source give for “MKTPALPTVQSPLLSSLPGVKHAFFTRQGGVSKGIYDSLNVGRGSQDEPADVEENRARIARWFGGGPEDLNVCYQIHSTIAIVADGSWGDARPEGDAVVSKTPGVICGAMAADCAPVLLVDPEARIVAAAHAGWRGALDGVVQSAVDRMVELGASPANITGVVGPCIGPKSYEVGLEFLHRFEADCPGSGRFFKPGASEDKRFFDLPAFVLDRLATAGVERREWVGRDTRAEEEWFFSNRRAFLNNDGDYGRLLSAITLEA” here?
A: The value was “soluble”.

Q: For “MKTRISSSRVRFSRYYLRIRESLISIPSRKNQFRFIRKNRFALQASFRSFTENSLTLSFMLLRRSPMKQSRTFLIF”, which “soluble on expression in E. coli” value is on record?
A: Its value is “not soluble”.

Q: For “MKTVLVDWNLIPYAEAWQRQTEWFDTLVRAKAQGEAYENRIIMCEHPHVYTLGRSGKENNMLLNDDQLKAIQATLFHIDRGGDITYHGPGQLVCYPILNLEEFHLGLKEYVHLLEEAVIRVCASYGIEAGRLEKATGVWLEGSTPRARKICAIGVRSSHYVTMHGLALNVNTDLRYFSYIHPCGFIDKGVTSLRQELKHEVPMDEVKQRLECELGRLLNEKKQQIAQ”, which “soluble on expression in E. coli” value is on record?
A: The value was “not soluble”.

Q: Which “soluble on expression in E. coli” value does the source give for “MKVAVLPGDGIGPEVTEAALKVLRALDEAEGLGLAYEVFPFGGAAIDAFGEPFPEPTRKGVEEAEAVLLGSVGGPKWDGLPRKIRPETGLLSLRKSQDLFANLRPAKVFPGLERLSPLKEEIARGVDVLIVRELTGGIYFGEPRGMSEAEAWNTERYSKPEVERVARVAFEAARKRRKHVVSVDKANVLEVGEFWRKTVEEVGRGYPDVALEHQYVDAMAMHLVRSPARFDVVVTGNIFGDILSDLASVLPGSLGLLPSASLGRGTPVFEPVHGSAPDIAGKGIANPTAAILSAAMMLEHAFGLVELARKVEDAVAKALLETPPPDLGGSAGTEAFTATVLRHLA” here?
A: Its value is “soluble”.

Q: Which “soluble on expression in E. coli” value does the source give for “MKVDRPSRSPFPQRIPQKFWKKINDENWIDVFDCKKIKERKQEFFWYKLDPLDLAKAVAMASQMNDRGVIPYPTPTLNDALNDHAALIRALNDSSIKKLFKEVRFFCTMRKRFSTIRNNPISVKREPTNF” here?
A: The value was “soluble”.

Q: For “MKVIDLSQTFENNMSQFPGTPKIQLKAVTSVEESGYQVTDFHSVVHVGTHCDAPAHFISGATTIDQLPLDQFVGEAVLIDVTHIQERKLPKTVLHNTDIKEGDIVIFHSNLSTKWNTEAYEKEAFYLSEELAKELVRLKVKSIGLDFISPDEVTTETSPIHHILLGNDIYLIENLTNLDAIEEKRFFFSAAPLKIKNSDGAFARAFAVIFLEHHHHHH”, which “soluble on expression in E. coli” value is on record?
A: Its value is “soluble”.

Q: Which “soluble on expression in E. coli” value does the source give for “MKVIINGKEFDIPKGVRFGELSHEIEKAGIEFGCTDGQCGVCVARVIKGMECLNEPSEEEEETLWRVGAVDEDQRLTCQLVIEKEDCDEIVIESED” here?
A: Its value is “not soluble”.

Q: With “MKVLCYGVRDVELPIFEACNKEFGYDIKCVPDYLNTKETAEMAAGFDAVILRGNCFANKQNLDIYKKLGVKYILTRTAGTDHIDKEYAKELGFPMAFVPRYSPNAIAELAVTQAMMLLRHTAYTTSRTAKKNFKVDAFMFSKEVRNCTVGVVGLGRIGRVAAQIFHGMGATVIGEDVFEIKGIEDYCTQVSLDEVLEKSDIITIHAPYIKENGAVVTRDFLKKMKDGAILVNCARGQLVDTEAVIEAVESGKLGGYGCDVLDGEASVFGKDLEGQKLENPLFEKLVDLYPRVLITPHLGSYTDEAVKNMVEVSYQNLKDLAETGDCPNKIK” as the sequence, how does the “soluble on expression in E. coli” value read?
A: Its value is “soluble”.
